B1: SAP: Serum Amyloid P component, species not printed at the place; murine Sap per legend b89 for b91, unstated for b97 (protein, UniProt P12246 21-224, looked up)
Serum amyloid P-component: QTDLKRKVFVFPRESETDHVKLIPHLEKPLQNFTLCFRTYSDLSRSQSLFSYSVKGRDNELLIYKEKVGEYSLYIGQSKVTVRGMEEYLSPVHLCTTWESSSGIVEFWVNGKPWVKKSLQREYTVKAPPSIVLGQEQDNYGGGFQRSQSFVGEFSDLYMWDYVLTPQDILFVYRDSPVNPNILNWQALNYEINGYVVIRPRVWD
B2: murine PTX3: Recombinant murine PTX3 purified from Chinese hamster ovary cells (protein)
chain: ETSDDYELMYVNLDNEIDNGLHPTEDPTPCDCRQEHSEWDKLFIMLENSQMREGMLLQATDDVLRGELQRLRAELGRLAGGMARPCAAGGPADARLVRALEPLLQESRDASLRLARLEDAEARRPEATVPGLGAVLEELRRTRADLSAVQSWVARHWLPAGCETAIFFPMRSKKIFGSVHPVRPMKLESFSTCIWVKATDVLNKTILFSYGTKWNPYEIQLYLSSQSLVLVVGGKENKLAADTVVSLGRWSHLCGTWSSEQGSMSLWANGELVATTVEMAKSHSVPEGGLLQIGQEKNGCCVGGGFDESLAFSGRITGFNIWDRVLSEEEIRASGGVESCHIRGNVVGWGVTEIQAHGGAQYVS

Experiments:
[1] = test system: neutrophils in whole blood; assay: Whole blood phagocytosis of A. fumigatus conidia by mouse neutrophils (FACS), with CD11b expression; type: cell-based, mice; conditions: SAP pre-opsonised conidia; for phagocytosis by neutrophils: 1 and 20 min
Description: FIGS. 7a and 7b depict the effect of SAP on A. fumigatus phagocytosis by neutrophils. a), b), FACS analysis (out of 3 performed) of phagocytosis (a) and CD11b internalization (b) in neutrophils after challenge with fluorescein-labelled AF conidia (5×10^6/100 μl of blood) opsonized or not with Sap is shown. a) neutrophil phagocytosis in whole blood of wt and Apcs^−/− mice. b) CD11b expression in neutrophils of a. a) and b) Mean±SEM;*, P<0.05;**, P<0.01;***, P<0.005;****, P<0.0005 (unpaired t-test).
FIG. 7c depicts the effect of human SAP on phagocytic activity. FACS analysis of neutrophil phagocytosis in blood of wt and Apcs^−/− mice after exposure with fluorescein-labelled AF conidia (5×10^6/100 μl of blood) opsonized or not with SAP. Figure refers to 2 experiments performed.***, P<0.005;***, P<0.0005 (unpaired t-test).
Cells and in vitro phagocytic activity. Phagocytosis assay in whole blood of A. fumigatus conidia by mouse and human neutrophils was performed as described (Moalli et al., 2010). Briefly, conidia (1×10^9) were labelled (1 h, r.t.) with FITC (Sigma-Aldrich; 5 mg/ml in DMSO), and eventually opsonized (1 h, r.t) with murine SAP (100 μg/ml; […]) and PTX3 (50 μg/ml; 1.1 μM). An amount of 1×10^7 FITC-conidia were added to 200 μl of mouse whole blood (collected with heparin) and incubated for 1, 5, 10, 20 or 30 min at 37° C. in an orbital shaker. Samples were immediately placed on ice and ACK lysis solution was added to lyse erythrocytes. Murine neutrophils were analysed by BD FACS Canto™ II Flow Cytometer (BD Biosciences) as previously described, and frequency and/or mean fluorescence intensity (MFI) of FITC neutrophils and CD11b expression were reported.

U937 cells = assay: Phagocytosis of A. fumigatus conidia by U937 cells overexpressing DC-SIGN; type: cell-based, human; conditions: U937 stably transfected for DC-SIGN and control cells
From the text: FIG. 9 depicts how SAP effect on phagocytosis is independent from its interaction with DC-SIGN. a) detection of DC-SIGN expression in transfected U937 cells by FACS. Untransfected cells and an irrelevant IgG were used as control. Mean±SD of a quadruplicate experiment is shown. b) FACS analysis of fluorescein-labelled AF conidia (1×10^7) phagocytosis by U937 cells (1×10^5) overexpressing DC-SIGN.
U937 cell lines [control (ATCC® CRL-1593.2™) and transduced with human DC-SIGN (ATCC® CRL-3253™)] were cultured in RPMI-1640 medium containing 5% FCS, 2 mM L-glutamine, 0.1 mM non-essential amino acids (all from Lonza-BioWhittaker™) and 0.05 mM 2-mercaptoethanol (BIO-RAD). DC-SIGN expression was ascertained by FACS using a rabbit polyclonal Ab (#ab5715, 5 μg/ml; AbCam, UK) and an Alexa Fluor® 488-conjugated goat anti rabbit (2 μg/ml; ThermoFisher-Molecular Probes). Phagocytosis of FITC-labelled A. fumigatus conidia (1×10^7) by U937 cells (1×10^5) was performed as above described above.

A. fumigatus conidia = assay: FACS binding of biotin-conjugated murine SAP to A. fumigatus conidia, with competition; set-up: species or system Aspergillus fumigatus; conditions: Sap 0.1-10 μg/ml; Ptx3 50 μg/ml; anti-Sap monoclonal antibody detection
Description: FIG. 1 depicts the interaction of SAP with A. fumigatus conidia in mice. a) induction of SAP circulating levels after i.t. injection of 5×10^7 A. fumigatus (AF) conidia; LPS, 0.8 mg/Kg. Mean±SD. c) FACS analysis of binding of biotin-conjugated (b-) murine SAP (Sap; 10 μg/ml) to viable dormant or germinating conidia of AF (1×10^8). Human SAP (50 μg/ml) and CRP (50 μg/ml) were also used. Mean±SD of one quadruplicate experiment of two performed.
FIG. 10 depicts the susceptibility to A. fumigatus associated with single or double deficiency for SAP and PTX3. a and b, survival of wt and Apcs^−/−, Ptx3^−/− and Apcs^−/−, Ptx3^−/− mice after i.t. injection of 1×10^8 (a) or 5×10^7 (b) conidia. a, wt, n=9 (a, b); n=9 (a, b); Ptx3^−/−, n=7 (a) or n=10 (b); Ptx3^−/−, n=5 (a) or n=12 (b). a, b, P<0.05, wt vs. Apcs^−/− P<0.01 wt vs. Apcs^−/−, Ptx3^−/−; P=0.06, Apcs^−/−, Ptx3^−/− vs. Ptx3^−/− (Mantel-Cox test). a) Curves of wt and Apcs^−/− refer to the same ones shown in FIG. 2a-c FACS analysis of Sap (range from 0.1 to 10 μg/ml) binding to viable AF conidia (1×10^8) in presence of Ptx3 (50 μg/ml). An anti-Sap monoclonal antibody (non-reactive to Ptx3) was used. Mean±SD of a triplicate. **, P<0.01;***, P<0.005;****, P<0.0001 (unpaired t-test).
Binding of SAP. Conidia of A. fumigatus and A. flavus (1×10^8 CFU) were cultured 4 and 16 h under static condition in Sabouraud medium to respectively allow conidia swelling and germination. Blastospores and yeast of Candida albicans were prepared as previously described (Santus et al., 2017). Yeast (8×10^6/ml) were incubated at 37° C. for hyphal induction. Formation of hyphae was evaluated under a microscope at different time points until its amount was assessed at 95%. […] After extensive washing, samples were incubated (30 min, r. t.) with Alexa Fluor® 647-conjugated streptavidin and binding was evaluated by FACS as frequency and MFI and visualized by confocal microscopy as described. […]

Molecule | CD11b internalization in neutrophils ([1]; Apcs−/− neutrophils) | phagocytosis by neutrophils ([1]; Apcs−/− whole blood) | CD11b internalization in neutrophils ([1]; wt neutrophils) | phagocytosis by neutrophils ([1]; wt whole blood) | SAP-mediated enhancement of phagocytosis, DC-SIGN transfected versus control cells (U937 cells) | competition of murine SAP binding to conidia (A. fumigatus conidia)
B1 | restored CD11b internalization | rescued the defect | prompted it | potentiated phagocytosis | similar | 
B2 |  |  |  |  |  | competed

Reference: patent US20220054588A1, “USE OF SAP FOR THE TREATMENT OF EUROTIOMYCETES FUNGI INFECTIONS” (HUMANITAS MIRASOLE S.P.A., priority 2018, published 2022)
